Assays:
hiR2-FL-L589P-T7 = target: T1, hiR2-FL-L589P-T7 (human, UniProt Q6PJF5 1-856); test: FACS on MEF-DKO cells
T1 sequence: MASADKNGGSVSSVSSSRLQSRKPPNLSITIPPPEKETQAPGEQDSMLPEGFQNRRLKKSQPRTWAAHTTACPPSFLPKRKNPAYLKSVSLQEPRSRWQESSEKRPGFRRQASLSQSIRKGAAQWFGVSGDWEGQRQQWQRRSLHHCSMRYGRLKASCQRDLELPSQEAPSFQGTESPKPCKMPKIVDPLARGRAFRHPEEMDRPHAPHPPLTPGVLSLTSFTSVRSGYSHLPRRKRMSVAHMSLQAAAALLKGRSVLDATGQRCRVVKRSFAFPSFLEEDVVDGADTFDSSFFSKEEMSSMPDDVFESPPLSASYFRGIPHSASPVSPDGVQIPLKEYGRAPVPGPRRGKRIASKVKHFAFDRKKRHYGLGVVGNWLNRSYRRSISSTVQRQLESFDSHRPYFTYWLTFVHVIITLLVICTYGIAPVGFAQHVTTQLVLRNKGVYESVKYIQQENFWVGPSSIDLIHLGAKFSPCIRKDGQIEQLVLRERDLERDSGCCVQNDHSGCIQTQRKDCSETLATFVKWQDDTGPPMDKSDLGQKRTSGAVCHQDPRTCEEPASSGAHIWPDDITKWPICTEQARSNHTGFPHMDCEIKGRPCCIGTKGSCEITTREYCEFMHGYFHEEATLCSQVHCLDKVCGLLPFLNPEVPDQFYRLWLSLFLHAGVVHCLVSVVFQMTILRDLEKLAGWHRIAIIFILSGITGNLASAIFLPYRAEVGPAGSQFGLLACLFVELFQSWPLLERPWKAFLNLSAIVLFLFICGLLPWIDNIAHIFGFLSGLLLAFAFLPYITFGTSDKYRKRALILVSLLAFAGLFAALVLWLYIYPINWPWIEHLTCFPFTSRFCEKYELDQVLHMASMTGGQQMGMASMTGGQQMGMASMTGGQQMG

hiR2-FL-I566E-T7 = target: T2, hiR2-FL-I566E-T7 (human, UniProt Q6PJF5 1-856); test: FACS on MEF-DKO cells
T2 construct: on MEF-DKO cells; also called hiR2-FL-1566E-T7
T2 sequence: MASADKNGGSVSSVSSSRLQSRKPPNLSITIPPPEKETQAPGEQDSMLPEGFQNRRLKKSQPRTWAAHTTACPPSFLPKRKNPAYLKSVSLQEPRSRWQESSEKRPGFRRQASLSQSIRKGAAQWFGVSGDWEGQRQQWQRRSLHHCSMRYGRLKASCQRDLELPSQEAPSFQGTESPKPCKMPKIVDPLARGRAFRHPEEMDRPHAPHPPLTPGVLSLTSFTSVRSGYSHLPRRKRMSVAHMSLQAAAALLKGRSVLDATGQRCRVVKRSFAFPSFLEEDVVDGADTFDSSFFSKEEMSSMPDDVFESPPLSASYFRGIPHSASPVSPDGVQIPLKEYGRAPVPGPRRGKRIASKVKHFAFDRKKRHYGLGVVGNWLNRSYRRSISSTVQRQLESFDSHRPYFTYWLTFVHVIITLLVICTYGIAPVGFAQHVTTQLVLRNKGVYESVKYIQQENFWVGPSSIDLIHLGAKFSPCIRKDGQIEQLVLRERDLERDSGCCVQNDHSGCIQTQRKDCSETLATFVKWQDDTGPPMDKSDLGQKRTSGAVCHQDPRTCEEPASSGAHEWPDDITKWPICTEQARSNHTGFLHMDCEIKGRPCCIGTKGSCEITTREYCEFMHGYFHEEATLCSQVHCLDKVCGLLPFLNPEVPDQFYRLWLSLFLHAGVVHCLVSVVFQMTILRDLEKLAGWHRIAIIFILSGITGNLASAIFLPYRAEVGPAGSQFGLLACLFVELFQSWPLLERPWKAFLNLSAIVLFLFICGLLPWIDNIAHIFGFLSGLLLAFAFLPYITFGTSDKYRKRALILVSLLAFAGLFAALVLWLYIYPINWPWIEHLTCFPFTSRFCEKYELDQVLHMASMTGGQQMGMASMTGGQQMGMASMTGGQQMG

B1: antibody 50 (antibody, V domains shown)
VH: QVQLQQSGAELVRPGASVKVSCKASGYAFSNYLIEWVKQRPGQGLEWIGVINPGSGFTKYNEKFKGKATLTADKSSSTAYMQLSSLTSEDSAVYFCARGLYRAMDYWGQGTSVTVSS
VL: DIQMTQSPASQSASLGESVTITCLASQTIGTWLAWYQQKPGKSPQLLIYAAASLADGVPSRFSGGGSGTKFSFKISSLQAEDFVNYYCQQIYSTPYTFGGGTKLEIK
notes: mouse IgG, kappa light chain; also called clone #50; purified antibody 50
Does B1 bind (hiR2-FL-L589P-T7)?
Result: no binding (tested: 3 µg/ml)

B2: antibody 5 (antibody, V domains shown)
VH: QVTLKESGPGILQPSQTLSLTCSFSGFSLSTFGMGVGWIRQPSGKGLEWLAHIWWDDEKYYNSALKSRLTISKATSKNQAFLKIANVDTADTATYYCARISNYGSNYWYFNVWGTGTTVTVSS
VL: QVVLTQSPALMSASPGEKVTMTCSAGSSVSCMYWYQQKPGSSPRVLIYDTSNLASGVPARFTGSGSGTSYSLTISRMEAEDAASYYCQQWNSYPLTFGAGTKLELK
notes: mouse IgG, kappa light chain; also called clone #5; purified antibody 5
Does B2 bind (hiR2-FL-I566E-T7)?
Result: no binding (tested: 3 µg/ml)

From patent US20240287172A1 (SCIRHOM, published 2024)
